In one experiment the target is T1, human IGFBP-1 (human, UniProt P08833 26-259).
T1 construct: biotinylated in the ELISA formats; amine-coupled to the chip in peptide kinetics
T1 sequence (looked up): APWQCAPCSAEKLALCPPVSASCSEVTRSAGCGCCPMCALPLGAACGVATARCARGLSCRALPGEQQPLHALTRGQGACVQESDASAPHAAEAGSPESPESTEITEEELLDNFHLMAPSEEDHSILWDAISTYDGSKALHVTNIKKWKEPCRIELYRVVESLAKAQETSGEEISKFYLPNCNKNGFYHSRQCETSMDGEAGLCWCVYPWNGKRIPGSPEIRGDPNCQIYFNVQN
Briefly: competitive phage ELISA. In general terms: An ELISA detects its analyte on a solid surface through an enzyme-linked reagent.

For experiment [1], the target named is T2, recombinant human IGFBP-3 (human, UniProt P17936 28-291).
T2 construct: biotinylated and held on a streptavidin chip in the ALS experiment
T2 sequence (P17936 28-291 limits assumed): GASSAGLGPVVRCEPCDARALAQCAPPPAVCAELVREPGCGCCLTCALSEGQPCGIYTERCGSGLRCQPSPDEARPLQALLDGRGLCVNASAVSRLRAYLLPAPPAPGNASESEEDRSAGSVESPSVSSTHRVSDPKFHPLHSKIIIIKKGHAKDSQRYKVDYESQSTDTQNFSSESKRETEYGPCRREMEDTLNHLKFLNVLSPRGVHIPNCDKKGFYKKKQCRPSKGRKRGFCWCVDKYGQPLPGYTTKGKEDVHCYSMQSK
Kind of experiment: competitive phage ELISA.

This is an account of results in patent US20030211992A1 (published 2003).

Usually IC50 stands for the concentration that inhibits the measured activity by half. In the experiment with human IGFBP-1, “D45A IGF-1 (G1S-A70V background) on phage (from UniProt P69168 267-424) (ligand)” yielded an IC50 of 4.7 nM and a relative IC50 (mut/G1S-A70V) of 0.6. In addition, in experiment [1], the IC50 amounted to 0.69 nM and the relative IC50 (mut/G1S-A70V) turned out to be 0.9.
The corresponding values for “D53A IGF-1 (G1S-A70V background) on phage (from UniProt P69168 267-424) (ligand)” are 15.3 nM, 1.9, 1.05 nM and 1.2.
“E3A IGF-1 (G1S-A70V background) on phage (from UniProt P69168 267-424) (ligand)”: in the experiment with human IGFBP-1, the half-maximal inhibitory concentration (IC50) was found to be 278 nM and the relative IC50 (mut/G1S-A70V) was determined as 33.9. Moreover, in experiment [1], the IC50 stood at 1.05 nM and the relative IC50 (mut/G1S-A70V) came out at 1.4.
The corresponding values for “E9A IGF-1 (G1S-A70V background) on phage (from UniProt P69168 267-424) (ligand)” are 8.6 nM, 1, 1.32 nM and 1.8.
The corresponding values for “E46A IGF-1 (G1S-A70V background) on phage (from UniProt P69168 267-424) (ligand)” are 7.9 nM, 1, 0.94 nM and 1.3.
The corresponding values for “E58A IGF-1 (G1S-A70V background) on phage (from UniProt P69168 267-424) (ligand)” are 11.9 nM, 1.5, 1.03 nM and 1.4.
In the experiment with human IGFBP-1, “F49A IGF-1 (G1S-A70V background) on phage (from UniProt P69168 267-424) (ligand)” returned an IC50 above 1000 nM and a relative IC50 (mut/G1S-A70V) above 100. Further, in experiment [1], the IC50 was found to be 2.72 nM and the relative IC50 (mut/G1S-A70V) worked out at 3.6.
For the substance “G7A IGF-1 (G1S-A70V background) on phage (from UniProt P69168 267-424) (ligand)”, the IC50 with human IGFBP-1 is above 1000 nM; in experiment [1], 4.58 nM. Besides, the values for the relative IC50 (mut/G1S-A70V) (in the experiment with human IGFBP-1; in experiment [1]) were above 100 and 6.1, respectively.
The corresponding values for “G30A IGF-1 (G1S-A70V background) on phage (from UniProt P69168 267-424) (ligand)” are 7.1 nM, 0.58 nM, 0.9 and 0.8.
For “G32A IGF-1 (G1S-A70V background) on phage (from UniProt P69168 267-424) (ligand)”, the IC50 with human IGFBP-1 came out at 10.9 nM; in experiment [1], 0.76 nM. In addition, the relative IC50 (mut/G1S-A70V) in the experiment with human IGFBP-1 was 1.3; in experiment [1], 1.
The corresponding values for “G42A IGF-1 (G1S-A70V background) on phage (from UniProt P69168 267-424) (ligand)” are 15.7 nM, 0.53 nM, 1.9 and 0.7.
The corresponding values for “I43A IGF-1 (G1S-A70V background) on phage (from UniProt P69168 267-424) (ligand)” are 31.3 nM, 1.17 nM, 3.8 and 1.6.
The corresponding values for “K65A IGF-1 (G1S-A70V background) on phage (from UniProt P69168 267-424) (ligand)” are 12.4 nM, 0.69 nM, 1.5 and 0.9.
In the experiment with human IGFBP-1, “K68A IGF-1 (G1S-A70V background) on phage (from UniProt P69168 267-424) (ligand)” registered a half-inhibitory concentration (IC50) of 10.5 nM and a relative IC50 (mut/G1S-A70V) of 1.3. Moreover, in experiment [1], the IC50 turned out to be 0.76 nM and the relative IC50 (mut/G1S-A70V) came out at 1.
The corresponding values for “L5A IGF-1 (G1S-A70V background) on phage (from UniProt P69168 267-424) (ligand)” are 55.3 nM, 6.7, 1.53 nM and 2.
As for “L54A IGF-1 (G1S-A70V background) on phage (from UniProt P69168 267-424) (ligand)”, the IC50 in the experiment with human IGFBP-1 came to 23.1 nM; in experiment [1], 1.83 nM. The relative IC50 (mut/G1S-A70V) with human IGFBP-1 was 2.8; in experiment [1] it was 2.4.
The corresponding values for “L57A IGF-1 (G1S-A70V background) on phage (from UniProt P69168 267-424) (ligand)” are 21.8 nM, 1.78 nM, 2.7 and 2.4.
The corresponding values for “L64A IGF-1 (G1S-A70V background) on phage (from UniProt P69168 267-424) (ligand)” are 12.1 nM, 0.93 nM, 1.5 and 1.2.
The corresponding values for “M59A IGF-1 (G1S-A70V background) on phage (from UniProt P69168 267-424) (ligand)” are 13.1 nM, 0.74 nM, 1.6 and 1.
Regarding “P63A IGF-1 (G1S-A70V background) on phage (from UniProt P69168 267-424) (ligand)”, in the experiment with human IGFBP-1, the IC50 was above 1000 nM and the relative IC50 (mut/G1S-A70V) was above 100. In experiment [1], the IC50 was above 100 nM and the relative IC50 (mut/G1S-A70V) was above 100.
Regarding “P66A IGF-1 (G1S-A70V background) on phage (from UniProt P69168 267-424) (ligand)”, in the experiment with human IGFBP-1, the IC50 was determined as 9.4 nM and the relative IC50 (mut/G1S-A70V) was 1.1. In experiment [1], the IC50 turned out to be 0.57 nM and the relative IC50 (mut/G1S-A70V) was 0.8.
The corresponding values for “Q40A IGF-1 (G1S-A70V background) on phage (from UniProt P69168 267-424) (ligand)” are 10.2 nM, 1.2, 0.56 nM and 0.7.
Regarding “R37A IGF-1 (G1S-A70V background) on phage (from UniProt P69168 267-424) (ligand)”, in the experiment with human IGFBP-1, the half-inhibitory concentration (IC50) came out at 12.3 nM and the relative IC50 (mut/G1S-A70V) stood at 1.5. In addition, in experiment [1], the IC50 is 0.75 nM and the relative IC50 (mut/G1S-A70V) was 1.
Regarding “R50A IGF-1 (G1S-A70V background) on phage (from UniProt P69168 267-424) (ligand)”, in the experiment with human IGFBP-1, the IC50 was 16.2 nM and the relative IC50 (mut/G1S-A70V) was 2. For the same substance, in experiment [1], the IC50 was 0.64 nM and the relative IC50 (mut/G1S-A70V) stood at 0.9.
For the substance “R55A IGF-1 (G1S-A70V background) on phage (from UniProt P69168 267-424) (ligand)”, in the experiment with human IGFBP-1, the IC50 is 9 nM and the relative IC50 (mut/G1S-A70V) amounted to 1.1. Moreover, in experiment [1], the IC50 was determined as 0.66 nM and the relative IC50 (mut/G1S-A70V) worked out at 0.9.
In the experiment with human IGFBP-1, “R56A IGF-1 (G1S-A70V background) on phage (from UniProt P69168 267-424) (ligand)” returned an IC50 of 13.1 nM and a relative IC50 (mut/G1S-A70V) of 1.6. In experiment [1], the IC50 came out at 1 nM and the relative IC50 (mut/G1S-A70V) is 1.3.
In the experiment with human IGFBP-1, “S1G IGF-1 (single mutant of G1S-A70V) on phage (from UniProt P69168 267-424) (ligand)” returned an IC50 of 11.2 nM and a relative IC50 (mut/G1S-A70V) of 1.4. Moreover, in experiment [1], the IC50 stood at 0.99 nM and the relative IC50 (mut/G1S-A70V) stood at 1.3.
The corresponding values for “S33A IGF-1 (G1S-A70V background) on phage (from UniProt P69168 267-424) (ligand)” are 9.1 nM, 1.1, 1.01 nM and 1.3.
The corresponding values for “S34A IGF-1 (G1S-A70V background) on phage (from UniProt P69168 267-424) (ligand)” are 9.5 nM, 1.2, 1.65 nM and 2.2.
The corresponding values for “S35A IGF-1 (G1S-A70V background) on phage (from UniProt P69168 267-424) (ligand)” are 11.7 nM, 1.4, 0.47 nM and 0.6.
In the experiment with human IGFBP-1, “S51A IGF-1 (G1S-A70V background) on phage (from UniProt P69168 267-424) (ligand)” showed an IC50 of 13.4 nM and a relative IC50 (mut/G1S-A70V) of 1.6. Moreover, in experiment [1], the IC50 stood at 0.65 nM and the relative IC50 (mut/G1S-A70V) worked out at 0.9.
The corresponding values for “S69A IGF-1 (G1S-A70V background) on phage (from UniProt P69168 267-424) (ligand)” are 12.8 nM, 1.6, 0.71 nM and 1.2.
The corresponding values for “T4A IGF-1 (G1S-A70V background) on phage (from UniProt P69168 267-424) (ligand)” are 19.4 nM, 2.4, 0.8 nM and 1.1.
